Reference: paper doi:10.1101/2023.02.27.530350 (bioRxiv, 2023)
Where two headings read alike, the source gives them in different places.

T1: VraR (Staphylococcus aureus, UniProt Q2FX09 1-209)
T1 sequence: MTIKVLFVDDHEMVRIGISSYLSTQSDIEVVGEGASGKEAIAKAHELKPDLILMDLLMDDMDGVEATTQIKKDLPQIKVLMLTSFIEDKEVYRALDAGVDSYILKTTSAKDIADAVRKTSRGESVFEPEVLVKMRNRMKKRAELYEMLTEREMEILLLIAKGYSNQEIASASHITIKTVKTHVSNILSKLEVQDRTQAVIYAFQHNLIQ

T2: WalK-LgBIT (native WalK, sensor histidine kinase) (Staphylococcus aureus, UniProt Q2FKN7 1-608)
T2 sequence (looked up): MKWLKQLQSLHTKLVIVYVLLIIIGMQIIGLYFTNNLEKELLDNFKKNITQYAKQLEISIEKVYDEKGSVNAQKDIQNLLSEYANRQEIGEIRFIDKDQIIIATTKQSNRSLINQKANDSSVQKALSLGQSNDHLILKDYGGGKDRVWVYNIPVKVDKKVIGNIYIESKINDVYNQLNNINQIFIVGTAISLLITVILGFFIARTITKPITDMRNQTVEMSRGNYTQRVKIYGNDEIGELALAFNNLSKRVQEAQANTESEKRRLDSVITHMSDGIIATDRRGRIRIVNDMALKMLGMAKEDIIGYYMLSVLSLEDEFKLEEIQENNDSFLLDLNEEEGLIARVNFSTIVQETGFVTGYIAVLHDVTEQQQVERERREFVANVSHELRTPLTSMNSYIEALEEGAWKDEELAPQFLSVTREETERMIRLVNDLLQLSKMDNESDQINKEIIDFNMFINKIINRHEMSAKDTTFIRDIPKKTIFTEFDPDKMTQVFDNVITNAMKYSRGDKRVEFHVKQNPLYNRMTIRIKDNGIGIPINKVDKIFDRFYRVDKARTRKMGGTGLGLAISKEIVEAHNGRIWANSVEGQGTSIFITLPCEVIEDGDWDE

B1: ltaS promoter EMSA probe (VraR site) (dsDNA)
DNA 1: CATTAGGAGGAAATTATTTGCATCGGACTCGAGTATGAGCTACGTACCAAATATTATTTCATCATTTCTA
DNA 2: TAGAAATGATGAAATAATATTTGGTACGTAGCTCATACTCGAGTCCGATGCAAATAATTTCCTCCTAATG
B2: ltaS promoter EMSA probe (WalR site) (dsDNA)
DNA 1: ATATTTATTAATTGAGCTATGCTTATTATTACAATTTGATTACAAATTTTAAATTTGTTAATTGAATGAT
DNA 2: ATCATTCAATTAACAAATTTAAAATTTGTAATCAAATTGTAATAATAAGCATAGCTCAATTAATAAATAT
B3: sasD promoter EMSA probe (dsDNA)
DNA 1: CTTTTGTAATCGTATGATAATGTAAATGTAATCAAATTGTAATATAAGGGGACAAGACAATGAAAAAATT
DNA 2: AATTTTTTCATTGTCTTGTCCCCTTATATTACAATTTGATTACATTTACATTATCATACGATTACAAAAG
B4: sle1 promoter EMSA probe (dsDNA)
DNA 1: TTTGATGATACAGTATATGATTTTTTTGTAATCATAATGTCATCAAACATCAACCTATTATACATAATAA
DNA 2: TTATTATGTATAATAGGTTGATGTTTGATGACATTATGATTACAAAAAAATCATATACTGTATCATCAAA
B5: ssaA promoter EMSA probe (dsDNA)
DNA 1: AAAACTGAATGTTTCGAAAATAAGTCTGTTACAAATTTGTAATATTACTGAAAATTCTAAATGTATATTT
DNA 2: AAATATACATTTAGAATTTTCAGTAATATTACAAATTTGTAACAGACTTATTTTCGAAACATTCAGTTTT
B6: isaA promoter EMSA probe (dsDNA)
DNA 1: AAATAACACTTGATATTGTAATGTTTTGTAAAGAAAGTGTAATTTACTGGCTGGTTTTTTGTGATATAGT
DNA 2: ACTATATCACAAAAAACCAGCCAGTAAATTACACTTTCTTTACAAAACATTACAATATCAAGTGTTATTT
B7: SAUSA300_0602 promoter EMSA probe (dsDNA)
DNA 1: GAAATATAAAAGTAGTAATTATTATTTGTAATATAATTGTAATATGACTGTTGTTTTAGAAATGATTGTT
DNA 2: AACAATCATTTCTAAAACAACAGTCATATTACAATTATATTACAAATAATAATTACTACTTTTATATTTC
B8: WalR_(T101A)-SmBIT (natural protein, Staphylococcus aureus, UniProt Q2FKN8 1-233, looked up)
chain: MARKVVVVDDEKPIADILEFNLKKEGYDVYCAYDGNDAVDLIYEEEPDIVLLDIMLPGRDGMEVCREVRKKYEMPIIMLTAKDSEIDKVLGLELGADDYVAKPFSTRELIARVKANLRRHYSQPAQDTGNVTNEITIKDIVIYPDAYSIKKRGEDIELTHREFELFHYLSKHMGQVMTREHLLQTVWGYDYFGDVRTVDVTIRRLREKIEDDPSHPEYIVTRRGVGYFLQQHE

What was measured:
[1] = molecular target: T3, WalR (Staphylococcus aureus, UniProt Q2FKN8 1-233); test: EMSA
[2] = molecular target: T1, VraR; test: EMSA
[3] = molecular target: T1, VraR; test: EMSA; remark: listed apart in the source
[4] = molecular target: T3, WalR; test: EMSA; remark: listed apart in the source
[5] = molecular target: T3, WalR; test: EMSA; remark: listed apart in the source
[6] = molecular target: T2, WalK-LgBIT (native WalK, sensor …); test: split reporter

T3 sequence (Q2FKN8 whole entry): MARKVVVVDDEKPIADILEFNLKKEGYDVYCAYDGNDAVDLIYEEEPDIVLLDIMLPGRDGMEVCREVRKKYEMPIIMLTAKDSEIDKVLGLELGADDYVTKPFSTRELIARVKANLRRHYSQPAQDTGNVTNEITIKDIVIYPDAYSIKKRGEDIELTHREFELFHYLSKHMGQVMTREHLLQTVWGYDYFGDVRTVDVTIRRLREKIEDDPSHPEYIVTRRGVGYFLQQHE

Row | Binder | binding result [4] | also measured
1 | B1 | – | binding result [1]: no binding; binding result [2]: binds
2 | B2 | binds | binding result [3]: binds
3 | B3 | binds | –
4 | B4 | binds | –
5 | B5 | – | binding result [5]: binds
6 | B6 | binds | –
7 | B7 | binds | –
8 | B8 | – | fold change of the maximal level of interaction against native WalK/WalR [6]: 1.5 fold
